Each substance was assayed against Angioensin Converting Enzyme (ACE).

Inhibitory activity of hydrolysate (%) | Substance
87.4 | AS1.398 neutral protease hydrolysate of ginkgo protein (pool or library)
61.3 | trypsin hydrolysate of ginkgo protein (pool or library)

Second part, the substance before the results:

Substance | Inhibitory activity of hydrolysate (%)
Alcalase hydrolysate of ginkgo protein (pool or library) | 80.4
papain hydrolysate of ginkgo protein (pool or library) | 73.2

Target: Angioensin Converting Enzyme (ACE)
Remark: another data set of the same source

ACE inhibitory activity (%) | Substance
56.2 | Over 10 kDa concentrated solution of ginkgo protein hydrolysate (pool or library)
85.3 | Ultrafiltrate below 3 kDa of ginkgo protein hydrolysate (pool or library)
72 | Ultrafiltrate of 3-10 kDa of ginkgo protein hydrolysate (pool or library)
